Measurements reported in patent US20230295276A1.

Columns and labels:
[1] = target: lysate of porcine coronavirus; test: ELISA Test 1, coated viral lysate, antibody 1:4000, Group 2
[2] = target: lysate of porcine pseudorabies virus; test: as above
[3] = target: lysate of porcine coronavirus; test: ELISA Test 2, coated viral lysate, antibody 1:4000, secondary antibody 1:2000
[4] = target: lysate of porcine coronavirus; test: ELISA Test 1, coated viral lysate, antibody 1:4000, Group 1
[5] = target: lysate of porcine pseudorabies virus; test: as above

B1: anti-PRRSV antibody 572 (antibody, V domains shown)
VH: EVQLQQSGPELVKPGASVKISCKASGFSFTGYYMHWVKQSHVKSLEWIGRIYPYTDSTIYNQNFKDKAGLTVDKSSSTAYMELHSLTSEDSAVYYCARDNGYADYAMDYWGQGTSVTVSS
VL: DIVMTQSPSSLSAFLGDSITITCHASQNIHVWLSWYQQKPGNIPKLLIYKASNLHTGVPSRFSGSGSGTGFTLTISSLQPEDIGTYYCQQGQSYPLTFGAGTKLELK
**Q.** B1 was tested. Which OD450 [1] did it give?
**A.** 0.312 OD450

**Q.** What about the OD450 [2] of the same binder?
**A.** 0.1 OD450

**Q.** And the OD450 [3]?
**A.** 0.782 OD450

**Q.** What about the OD450 [4] of the same binder?
**A.** 0.322 OD450

**Q.** What about the OD450 [5] of the same binder?
**A.** 0.091 OD450
